Where two headings read alike, the source gives them in different places.

The target in series [1] is T1, thrombin (Amersham Biosciences) (human, UniProt P00734;P00734 315-363;364-622). As to the kind of experiment: filter binding.
Series [2] deals with T1, thrombin (Amersham Biosciences). As to the kind of experiment: filter binding. This is another data set of the same source.

As to GGACUUCGGUCC (structured_RNA) [H1 RNA hairpin control], the binding result in series [1] is “no binding”. For the molecule GTCTCTTGTGTGACTCTGGTAAC (ssDNA) [P8 ssDNA control], in series [2], the binding result was “no binding”.

The values above are taken from PMC1976452.
